The source of these data is US7439329B2, “GEF-H1b: biomarkers, complexes assays and therapeutic uses thereof” (Sugen, Inc., priority 2002, dated 2008).

For assay [1], the target named is T1, PAK4 (Homo sapiens, UniProt O96013). Kind of assay: GST pull-down binding assay with 293T lysates expressing exogenous PAK4. Also noted: expressed in transfected cells; host or cells: 293T. As to conditions: GST-fusion protein on glutathione beads. The protocol:
FIG. 1: (SEQ ID NOs 32-34 respectively in order of appearance) Direct binding of GEF-H1 to PAK4. Lysates were prepared from 293T cells over expressing (a) myc tagged PAK4 alleles or subdomains and incubated with GST, GST-GEF-H1 (787-921) and GST-Maguin-like bound to Glutathione beads (1,2,3,4 bead designation) or (b) GFP-GEF-H1 and incubated with PAK4 biotinylated peptides (291-355) and (276-324) linked to streptavidin beads. An equivalent amount of beads and excess lysates (500 ug) were used. Eluates of beads and total lysates were analysed by SDS-PAGE and immunoblotted with myc or GEF-H1 antiserum; (c) represents a PAK4 gene schematic outlining the regions of PAK4 used to identify the GEF-H1 interaction domain (GID). d, alignment of the GID defined by the minimal binding region of PAK4 with PAK5 and PAK6.
To confirm the in vitro interaction of GEF-H1S with PAK4, bacterially expressed GST-fusion proteins were generated with the identical sequences isolated by phage display, encoding either amino acids 763-921 of GEF-H1S or amino acids 385-555 from the Maguin-2-like protein. These fusion proteins were bound to glutathione beads and utilized in binding assays with 293T lysates expressing exogenous PAK4. […]
Target sequence in this assay (O96013 whole entry, the tested form may be a part): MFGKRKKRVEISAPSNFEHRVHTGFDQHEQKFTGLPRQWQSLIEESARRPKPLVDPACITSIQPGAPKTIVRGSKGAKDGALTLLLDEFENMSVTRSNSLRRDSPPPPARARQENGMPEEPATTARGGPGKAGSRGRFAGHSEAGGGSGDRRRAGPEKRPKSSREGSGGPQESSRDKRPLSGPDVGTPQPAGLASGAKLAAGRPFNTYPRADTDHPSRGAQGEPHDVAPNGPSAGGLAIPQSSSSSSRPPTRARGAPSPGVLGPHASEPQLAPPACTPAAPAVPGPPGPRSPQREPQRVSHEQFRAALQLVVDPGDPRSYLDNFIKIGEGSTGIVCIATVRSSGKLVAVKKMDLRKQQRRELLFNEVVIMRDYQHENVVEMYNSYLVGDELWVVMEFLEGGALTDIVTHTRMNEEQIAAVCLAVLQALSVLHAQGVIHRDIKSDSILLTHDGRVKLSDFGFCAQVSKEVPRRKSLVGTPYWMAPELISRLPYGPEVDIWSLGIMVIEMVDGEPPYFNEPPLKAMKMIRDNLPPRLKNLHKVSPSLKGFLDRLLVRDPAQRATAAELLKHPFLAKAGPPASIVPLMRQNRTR

For assay [2], the target named is T1, PAK4. Nature of the assay: In vitro kinase assay, phosphorylation of substrates by PAK4. In kind it is biochemical. Also noted: Glutathione-s-transferase (GST) fused PAK4 (residues 291-591); GST (N); made in house. As to conditions: autoradiography. The protocol: Next examined, was whether GEF-H1 is a PAK4 substrate. In vitro kinase assays were performed using a GEF-H1 GST-fusion protein, a Maguin-2-like GST-fusion protein and GST control protein as substrates for phosphorylation by PAK4.
The cDNA encoding GEF-H1S obtained in the phage display screen was excised and subcloned into pGEX-4T expression vector to allow for recombinant production of protein for in vitro experiments. The GEF-H1S protein was then mixed with PAK4 kinase and incubated such that PAK4 phosphorylated the GEF-H1S. A portion of this kinase reaction was separated by SDS-PAGE and autoradiographed to visualize the extent of phosphorylation. […] SDS-PAGE is a universal protein separation and visualization technique that is described in Laemmli, Nature, 227(259):680-5, 1970.
From the phosphorylation experiments described above, two peptides of GEF-H1S were identified as being targets for PAK4-induced phosphorylation. The GEF-H1S target residues were identified by aligning the PAK4 activation loop peptide with the GEF-H1S polypeptide sequence amino acids 762 to 921.
The following phosphoisomers (phosphate-modified GEF-H1S peptides) were used in PAK4 kinase assays to determine which residues were specifically phosphorylated. Because certain residues were modified to comprise a phosphate moiety (the underlined residues below), they could not be phosphorylated by PAK4. […]
Target sequence in this assay (O96013 291-591): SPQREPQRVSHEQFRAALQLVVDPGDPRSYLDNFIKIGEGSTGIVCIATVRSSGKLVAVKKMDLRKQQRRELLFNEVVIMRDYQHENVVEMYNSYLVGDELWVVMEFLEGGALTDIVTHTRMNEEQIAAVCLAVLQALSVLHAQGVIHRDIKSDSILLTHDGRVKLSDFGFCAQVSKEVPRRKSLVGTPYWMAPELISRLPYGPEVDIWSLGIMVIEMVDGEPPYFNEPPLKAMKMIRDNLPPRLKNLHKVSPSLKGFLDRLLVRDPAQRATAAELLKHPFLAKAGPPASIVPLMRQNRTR

B1: GST-GEF-H1S (aa763-921): bacterially expressed GST-fusion protein of amino acids 763-921 of GEF-H1S (protein)
chain: LRESEQARALLEREAEEARRQLAALGQTEPLPAEAPWARRPVDPRRRSLPAGDALYLSFNPPQPSRGTDRLDLPVTTRSVHRNFEDRERQELGSPEERLQDSSDPDTGSEEEGSSRLSPPHSPRGETLAETWTRDFTRMQDIPEETESRDGEAVASES
modifications: left off: a dimerising Fc or GST
notes: bacterially expressed GST-fusion protein of amino acids 763-921 of GEF-H1S
Consider B1, for which, in the assay with PAK4 [1], the “binding to full-length myc-tagged PAK4 protein and the kinase domain (amino acids 291-591)” value was “able to bind strongly”. Further, the “phosphorylation by PAK4 in vitro” value with PAK4 [2] is given as “showed phosphorylation”.
